The data set is described as follows: label from the status in PepcDB records.
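Also: failed if final PepcDB status was selected cloned or expressed and not failed if soluble or beyond.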

In the case of “MKYLAFSIVFILTAFTRVTAQNLDGIDKSLSLSKMKTRARIAEETGDIYTALFYYEEVVRNDSSDLKALYQVAEMQRFTRNYKAAEVTYGKIHEIAAADYPLAQYYQGLMQKMTGRYEDAKQTFSEFRKNSAALADKTFKATLARDISGCDSGITYRDFPQNTQIKNAGKSVNFPHTEFSPVILDSTTLAFGSLRIDSVIYYDTRGEHYEKQPVRQLYEAKKVKGQWVEKGLLEAINDPAMDMGNFVYSPTTDRYYFTKCTKNHHGKVSCAIYYSERVSGKWSHPSKLPDPINIEGYTATQPTIVIDTTSSSAATTTPKNMPPRKTGGNKPVPKPVVNTIEYLYFVSDRPKGKGGLDIWYTSYNASKKTWNEPTNLAVANTPETECTPFYHVPTQTLYFSSNGLVNAGGLDIYKLEKDGRRFGRPENLSFPVNSPQDELSFVLADNAKTGFFVSNRPGGTPFFHETCCDDIFSFEVIPPPPFVCTLDLSVLDVAAKNNCDGELLNINQVNLKTKAAEKDTVRLSSCKYTVSLAQHVKYTFFINKPGYVTDTLSFETRDMCATPTITKSLTLVPVSVSMKNSEPVIETPVEGKAFVLKDIQYETNQTDLNDEAKAAIDNILIPFLKEHPTDKIIISSHTDDVGSHKYNENLSDQRALKVMQYLIQKGISAKQIQAKGYGETKPIASNINPDGSENEIGRSINRRTEFLISK”, the protein production result is given as “failed”. As for “MKYLYQQLLAFIGVIALIILIVGTSFTQLTKRTMQENNYEQLYGYAESALETRDFFINVAGVSDRDVLSYSFQLTERVLQKQDVQFVFINKDREVQYPPVDSTKKLDFSLIDKNWDQIMKGNRVYATENIDIYGARNTSSYVMLPVYASNQSSDKKVIIGSLVITQPAKNVDRSVQSVTQNLIKGFIFSGVIALLLSYLFATFQVKRINRMRKATKEITSGNFDIQLPVHDKDEFDDLAEDFNKMAASLKESQEEINRQEERRRQFMADASHEMRTPLTTINGLLEGLQYNAIPENQKENAIKLMQNETARLIRLVNENLDYEKIRTNQIQIVVKKFNGTEALENIVTQLTAKAEAAGNQLYLDTTEPIDVYADYDRFVQVVVNIVQNAIQFTENGEIHIALEKGYLETIVRISDTGIGMTEEQILNIWDRYYKVDPSRKNTKYGESGLGLPIVQQLVRLHKGKINVESELGKGTTFIISFPDVEITEN”, the protein production result is given as “not failed”. The result for “MKYSTRADIQDYLKQGYQLVSDNFVTGTTFDTDDRTDQIYEVHFKHGIESDFEKRNVKETVHYRYDNGQLARPIYQNVLNFERKVETDQVTKQRNYKNWQAVDGTSFKRVVSPYIKGYTAVPKLIDEITNINENHKNIEKIVVYKANDEKAQVKYFDDTTGRKLSEQFLHGAYGSRDVYRTANTIQHYKQMGYELVSDDYPKNGAKYSQDKLVRVYEIHLKHKIIEQSEKSTVKEVIHYLYDNGHLAKPVYESVLNFSRMVGIDQVTGKKYYGIWQATEGTSFKKVVSPKIEGYTALPKVVVAINNINVNHANIEKIVVYKANDEKARVKYFDDTIGRKLSEQLLHGVYGSRDVYRTANTIQRYKQMGYELVSDNYPKNGANYSQDKLVRVYEIHLKHKIVKQPEKSTVKEVIHYLYDNGQPAGPIYENELDFKRIIEFDQVTKQKRYGNWQAIDGTYFKKVDSPKIIGYTPTLEAIETINNIDGSHKDIEETVVYKINDEKAQVTYYDDTTRKKLSEKGLNGAYRTRDSYRTVDAINQYKWAGYELVSDDYPQNGVFYDQDKLIKMYEVHLKHGEKMDFEQRAVKEVIYYQYDDGQLAEPTYKNKLSFRRIVKIDQVTGQKYYGVWQAVDGTNFRSVVSPIIEGYTPIPEIVRAINNINSYHQDVEKTVVYQANKQNEVVGGNSPKKFKQIKIILVRVIHPNREVRINTEKSHTKK” reads “failed”.

Take “MKYVPSFKSLKETENGWELQVSWMITVTLRVTMQKSRDEITYLIKKTEGLVKINSYLRFIILPTRDRTVVRLTFFYKGPFERVAKRQTEEFYRRGVEIFKRDLESVQVERKEERGAPSNAKLLLNMRTLLSTQIGKDQLDEVLEQAMLWSVNSQVFVLISDGSRRVELRFRNGDLESGGDLSSLGDKITVIVKGDRAD”: the protein production result is “failed”.

Regarding “MLADELTIGPIRAVPMDITPKYVGIASGLMNAGSAVADIISPIAFGIIIDKTGNWSLPFYGSVALLVIGIFLTFFMRPDKSL”, the protein production entry is reported as “failed”. For “MLADHARALDALRSALTPLKAELVAAELESIPVSRLKDVTEGRLRLGAVEAAGFTSVRGVYEAGRYELRQLPGVGEQTADRALAAARQIARAVAETVSVRLDVDHPEPRTTALVVALHRLVEAGPELRRALDAATRLDERLGALLPAARPAGGRLRLALAGRHRREDALAAAAETRDLVAEATARDVPLLLAQASTDLLRDPASDIEAWVDFELRSAEYYSQLAEVSEHRPDAEAGEGFLPSGVAERVHAQPLDDTHRRVSLRGYQSFGARFALAQRRVVLGDEMGLGKTVQAIAALAHLAAEGHSHFLVVCPASVLINWTREIRARSTLRALPVHGADRRDAYEEWRERGGVAVTTFDVLHSLPVPDTEKPGMLVVDEAHYVKNPDTRRAKAVTGWTAHCDRVLFLTGTPMENRVEEFRALVRHLQPALLPAVQGGGVAAGPHAFRKSVAPAYLRRNQQDVLTELPALVQVDEWEELSAADRDAYRKAVAEGNFMAMRRAAYADAEKSAKLGRLRELVAEAADNGLKVVVFSYFREVLATVQQCLGEPVLGPISGGVPAARRQRLVDAFAAIDGHAVLLAQIEAGGTGLNLQAASVVILCEPQVKPTMEHQAVARAHRMGQIRTVQVHRLLATDSVDDRLLRILKNKDRLFDAYARRSDIAEATPDAVDVSDASLARRIVEEEQQRLAARPADQPARTTS” the value was “failed”; for “MLADPAQPEHVFIVEDSRGATELKLYKSHYTIGKADSCDIRLHSIYASRQHATLVRFLTENGEVRYRLIDGDPETSRRSANGTYVNNRSITECDLKHYDQILFGADVKATYFYLSPQFRSLEHHHHHH”, “failed”; for “MLAFFIFLSTLVLLFWRPWNLPIWVFSSLGAFFVFIFQLVDFKDACFVFSLVWDSSLTLVGLIILSFSLEALGFFDFIASKILYFSREKNQEKIYISTKKMMLFLLIFVFFLSAFFANDGAILIITPIIIALFSTLKDCKNHAFILSSFLLSLSFLCDASSNALVISNLTNIITANYFKIEFLEFAKNMFLPNFFVLLSTIVTVFVLYVRVLPKRLEFKLIKKEQISLKLFFLCIVFLFLFVISFFIGEIFNIKISFFALLWAGIFWLIILKIQGKKSIKILFEAPYGVLLFSFGLYMVVFALHKIGVSEILVKSYAFLMQDKSGIFGVALISAFGSSVFNNLPMVLIGDLALKEYFENFSFDSLMIYAHLLGVNIGPKLTPIGSLATLLWLGVLARKGINISFWQYCKFGFLITLPVLVFSLFALIV”, “failed”. For the sequence “MLAFNLLRSAHMLNPALQVLAKDGSIADNTYQPIAEDGVIPAGDVVMTTAQLDQLTAIQGKKALYITVNDSPETHQFPLDQLDAIFIEFAGFNDGRGYSFAALLRRQGYQGELRAVGDIFKDVLNYLKRSGFDTFVIKEGKDIQEAAAGLNDFRQPYQASTAVPQADYQTGA”, the protein production result is listed as “failed”. For “MLAGATLAIGVIAPQVLPATAHADEQTGESTVNLRILETSDIHVNLMNYDYYQTKTDNKVGLVQTATLVNKAREEAKNSVLFDDGDALQGTPLGDYVANKINDPKKPVDPSYTHPLYRLMNLMKYDVISLGNHEFNYGLDYLNKVISKTEFPVINSNVYKDDKDNNEENDQNYFKPYHVFEKEVEDESGQKQKVKIGVMGFVPPQVMNWDKANLEGKVKAKDIVETAKKMVPKMKAEGADVIVALAHSGVDKSGYNVGMENASYYLTEVPGVDAVLMGHSHTEVKDVFNGVPVVMPGVFGSNLGIIDMQLKKVNGKWEVQKEQSKPQLRPIADSKGNPLVQSDQHLVNEIKDDHQATIDYVNT” the value was “failed”. The result for “MLAGHLFAGVGEDVRLFKGITMTYGHNIELGDNAVVHDGVHLDDRGELVVGARASVSNGAHLYTHDHDVVDQTDVTNYRTEIGADARVTQGALVRAGVRVGENALVGSRSVVQGDVPAHHIAVGSPAESVRVKPGWLEHHHHHH” reads “failed”; that for “MLAQIEQEHYSKLHEILRLCRANLKNYDESLIQRAFFMCYRAHEGEKRASGEPFFYHPVEVAKLLVTELPLDGVSVAAALLHDVIEDSGYTYEDISAELGAEVADIVEGLTKISEIMVNRETTEAEGFRKMLLSMVKDIRVILIKFCDRLHNMRTLDSLPEHRRLRMALETRDIYAPLAHRFGLGKMKVDLENLALKYIDPEMYDYLLKKVRLSRNERVAYLNKMIAPIKDDLEKQGFTVELQGRAKHLYSIYNKMRMKNKKFDDIHDLYGIRVIIDTEKISDCFAVYGYITQQFPPIPQHFKDYISIPKHNGYQSLHSAIIGPKGHVVELQIRTRRMHEFAELGVAAHWRYKEKISKDDAALDSFLKWARELIKDADSATAFMEGFKLNLYHDEIYVFTPKGDMKVLPAGATPIDFAYAIHSEIGNGCIGAKVNGKIVRLNTELRSGDRVEVITSKSQRPKADWLKIVVTHRAKLKIRAAINEERRQEIEKGRSIWEKMLSGSKKLFTENDAIRAIRQHGIKTPADLFNALAKQQISSEEVLERISHPHRPAETHESTVQARAPHKDFAEIAREVQERLGYQKDEVTIAGLNNISYSYAKCCNPVPGDDIIGFVTTGGTVKIHRKNCVNVTNENSVKSERIVSVAWNRKVDTDFLAGIRIVGEDKIGMTNQITGVISKFDTNIRTIVLNAKDGIFTCNLMIFVKNTDKLTTLMDKLRKVQGVFTVERLSN”, “failed”.

Consider “MLAQQIVGIFLMTTGTLFVFVAGLGVLRLPDVYMRLHASTKAGTLGVALNAAGLVVFHPDLGIFTRAFALVLFLLLTAPVAAHMIGRASYFAREEMGVSIWDGTVVDRMLDHRGEALFSTGAPEDGADASGSPS”, for which the protein production entry was “failed”. As to “MLARRIVAKHVTKTTALAMLGTTIVLVILQVLFTYLGELSNLKADYSAWQAFLYVLWGAPRYLYEILPISALIGAILGLGTLASNSELIVMRSVGISLWRIVGWVIRSALVLVLLSFALSEWVVPYTNERANSVKSHQSVAALGEVRGYWSREGQRFIYVDYANSQGQLKRIQVVDFDDNYRLKSVTNAEQGQFVKDGQWLLNHSQQMAIQGQGDAVLANAAKQPFSLALQPKYVHMVTIDPEDLSFSQLVSFMNYMREYSQVPKTYQLAFWKKVASPFALITLVLVACSFIFGPLRQQSMGFRLVIALFIGLGFYYLQDFLGYASLVYNPSPAWFVLGPIVLMFVAGSYLLYRAR”, the protein production entry was “failed”. The result for “MLASIISILRVFVLLFNTPLFIFAFLPVGFLGYFILQAYAKNPLFPKLWLVLASLFFYAFWNVKYLPLLVGSIVFNYFVALKIHQTQPNAYKRLWLILGLIANVSLLGFFKYTDFFLTNFNLIWKSHFETLHLILPLAISFFTLQQIAYLMDTYKQNQIMQPKMRERVSENAPILLNPPTSFFSLSHFLDYALFVSFFPQLIAGPIVHHSEMMPQFKDKNNQYLNYRNIALGLFIFSIGLFKKVVIADNTAHFADFGFDKATSLSFIQAWMTSLSYSFQLYFDFSGYCDMAIGIGLFFNIKLPINFNSPYKALNIQDFWRRWHITLSRFLKEYLYIPLGGNRVKELIVYRNLILVFLIGGFWHGAGWTFIIWGLLHGIALSVHRAYSHATRKFHFTMPKILAWLITFNFINLAWVFFRAKNLESALKVLKGMVGLNGVSLCHLSKEASEFLNRVNDNMIMHTIMYASPTFKMCVLMIIISFCLKNSSHLYQSNQMDWIKTTSACLLLSIGFLFIFASSQSVFLYFNF” reads “failed”; that for “MLASVRVNQLQRLLLSARRLSSSPIIPPSRLLHQRLFSTSDTDASAASFSSSHPKIQTLEGKASNKSRSTSSTTSLNEDELAKFSAIADTWWHSEGPFKPLHQMNPTRLAFIRSTLCRHFSKDPSSAKPFEGLKFIDIGCGGGLLSEPLARMGATVTGVDAVDKNVKIARLHADMDPVTSTIEYLCTTAEKLADEGRKFDAVLSLEVIEHVANPAEFCKSLSALTIPNGATVLSTINRTMRAYASTIVGAEYILRWLPKGTHQWSSFVTPEEMSMILQRASVDVKEIAGFVYNPITGRWLLSDDISVNYIAYGTKRKDLGDI”, “failed”.

(Values after a protein production outcome set (Wang et al. 2014).)
